B1: caspase-9 (NCBI accession no: NP-001220.2), human, purchased from R&D Systems (protein)
chain: MDEADRRLLRRCRLRLVEELQVDQLWDALLSRELFRPHMIEDIQRAGSGSRRDQARQLIIDLETRGSQALPLFISCLEDTGQDMLASFLRTNRQAAKLSKPTLENLTPVVLRPEIRKPEVLRPETPRPVDIGSGGFGDVGALESLRGNADLAYILSMEPCGHCLIINNVNFCRESGLRTRTGSNIDCEKLRRRFSSLHFMVEVKGDLTAKKMVLALLELAQQDHGALDCCVVVILSHGCQASHLQFPGAVYGTDGCPVSVEKIVNIFNGTSCPSLGGKPKLFFIQACGGEQKDHGFEVASTSPEDESPGSNPEPDATPFQEGLRTFDQLDAISSLPTPSDIFVSYSTFPGFVSWRDPKSGSWYVETLDDIFEQWAHSEDLQSLLLRVANAVSVKGIYKQMPGCFNFLRKKLFFKTS
B2: caspase-8 (NCBI accession no: NP-001073593.1), human, purchased from R&D Systems (protein)
chain: SESQTLDKVYQMKSKPRGYCLIINNHNFAKAREKVPKLHSIRDRNGTHLDAGALTTTFEELHFEIKPHDDCTVEQIYEILKIYQLMDHSNMDCFICCILSHGDKGIIYGTDGQEAPIYELTSQFTGLKCPSLAGKPKVFFIQACQGDNYQKGIPVETDSEEQPYLEMDLSSPQTRYIPDEADFLLGMATVNNCVSYRNPAEGTWYIQSLCQSLRERCPRGDDILTILTEVNYEVSNKDDKKNMGKQMPQPTFTLRKKLVFPSD

Target: ApoHsp (cage protein formed by the fusion protein of Hsp, DEVD motif and histidine polymer, labelled with Cy5.5 and BHQ3)

| Protein | fluorescence signal (Cy5.5 dequenching after cleavage, 96-well plate, 37 C, 2 hours) |
| --- | --- |
| B1 | fluorescence did not occur in reactions with another two capases at all |
| B2 | fluorescence did not occur in reactions with another two capases at all |

Reference: patent US20130230562
